From patent US20210000909A1 come the findings set out here.

The assay has as its target PDZ1/2 domain, P78352.

PDZ1/2 domain, P78352, sequence (P78352 61-249 limits assumed): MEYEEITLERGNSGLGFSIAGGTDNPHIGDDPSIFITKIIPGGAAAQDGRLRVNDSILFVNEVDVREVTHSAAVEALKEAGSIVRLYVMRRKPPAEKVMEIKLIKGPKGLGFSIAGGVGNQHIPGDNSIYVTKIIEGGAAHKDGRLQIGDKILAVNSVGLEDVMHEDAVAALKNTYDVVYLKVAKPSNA

In turn, YGRKKRRQRRRYEKLSSIESDV (modifications not checked) [chimeric peptide YE-NA-1] came in with a Kd of 54.4 nM.
